Reference: the domain aggregation screens of Martell et al. (2025)

test: soluble fraction after stress (log2 fold change); higher = more stays soluble; pooled small domains, quantitative proteomics; details: stress: 50 degC
Method in brief: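 After stress at 50°C, the amount of each protein still soluble was measured. This was done on pooled custom libraries of small protein domains, using high-throughput quantitative proteomics. The figure given is a base-two log fold change and stands for aggregation propensity, with higher values meaning more protein stays in solution.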

“HMRGPVRLDLPVSGLSRSSGPALAKILQAVPGVHKAHVNVRSGKATLEYDPARAKVTDFVEVIRSAGFGT” and “HMITGREMDVLEALWSSEKPLVASDIPKMKPSLSISSVQLALRNLVKKKLVEVADIVYSGTVLSRSYRP” are within 0.2 log units of each other in “soluble fraction (log2)” value: -0.0414 for the first, 0.0545 for the second.

“HMRSKTDLVYEEIKKLILRGELSSDTPISENHLARRFEISRTPIREALKRLHIEGFVRIIPNHGVFVR” and “HMSEFGENLKKLRTARDLTQQELGAKVGLSKAVVSKYENGLGYPTFDVLIRIAAYFGVTTDYLLGV” are within 0.2 log units of each other in “soluble fraction (log2)” value: -0.343 for the first, -0.442 for the second.

Compared with “HMQPIAVHIGTENPMKSLSDLSVVRAQFTSGGRVIGSVAVLGPTRMQYSRIVGMMRFMQQRLDLLLKG”, “HMKQLQIPYSFAKRHGVLLRYEGDQAFIVRRDNTSMLALQEARRLLGHPAHYLLYSEQEFNQLLSASFA” is lower in “soluble fraction (log2)” value: 0.0586 for the first, -2.7 for the second.

First: HMYMFSGQRLKSLRKEKKMSQEKLGSLLNISKVAVSNWENAKSFPTMDNLNELAKVLEVEPHYF
Second: HMTLHEAMEKLFRQVGRPMTTKEIAEKLNENKWYQKADGSPLTPYQIYGRAKNYPALFHREGSIIYLKGS
The “soluble fraction (log2)” value of the first is lower: -1.16 for the first, -0.41 for the second.

First: HMLPRLVLSPGTEVLATVMGKYENGMSLVKISSHLFAMDLPSRVQVGDSLRMTFLHQDARPTFALA
Second: HMHQKYIITGTRDTYVVSQGETLRTIAEHVYGSRGYARYIIEHNHITHPDDIPVGLTIRLPELELNPDYR
The “soluble fraction (log2)” value of the first is lower: -0.779 for the first, -0.525 for the second.

Compared with “HMSRSLEIDVLVKALLEQDRRKFMLVTDGTADVTVRYNNALPSLFREGQGVVAEGLMDNGKFIATNVLAK”, “HMTKSEWLRESREHLGLSQTDLRNLLNTALNRSYDKSRISRWENSKENIPAEVVKQIESLIATR” is higher in “soluble fraction (log2)” value: -0.631 for the first, 0.123 for the second.

First: HMSEYILATNDGEFLRITSYSKEEGGMLVWEKTSSIVSAEHKVIPYSQIINIKDRNGDVVWDKD
Second: HMVNPIDFYLLFRTELQRLAEHPITVDRLTEVTGLNKLQVLDWLKRAEQDGLVKKLNRPTRYQLN
The “soluble fraction (log2)” value of the first is lower: -0.346 for the first, -0.0401 for the second.

Going from “HMDENVVLRKVAREAFVIEYVRGIRAIDPGIGGPKLWLMYKREFGDNDTVGRDTFEDILDRNNLKVRI” to “HMSASSDATRQRVLRAAEQLFGAKGVENVSLREMTTLAGVNLAAVNYHFGSKDALAEAVFEALSER”, the “soluble fraction (log2)” value rises from -3.26 to 0.41.

First: HMEEMADILKTRIDTLDLSTRTLNALTGANIRTVGGIARKKKEDLLELAGMGEKGIQEIKKVLGGFGITL
Second: HMGEDLTIDQLAAEVDMTVRNIRAHQARGLLPPPTIKGRIGYYGPLHRRRLQQIRAMQEEGLNLAAIAKVV
The “soluble fraction (log2)” value of the first is higher: -0.0181 for the first, -0.609 for the second.

“HMEQAMIVILKENPDRRQLEFLTGWLQKQQIGIHISEGAHQTVLGLVGDATRLDIDMLKQMEIVEDVKRVQ” and “HMADGKWTLTDAGYTFTYSDGRKARGTWEDIDGEWYHFDRNGIMETGWKTVGNIRYHFNQDGSL” are within 0.2 log units of each other in “soluble fraction (log2)” value: -0.0829 for the first, -0.185 for the second.

Going from “HMKAKPTLLTPYEERLKGWLETDSRRPKRDRRTGLALFAKLQQEGFTGSYTRVTEYIRRWRDSGG” to “HMQPEKELAPLIGQRVSVRLHDGDGGYRDLLGELESPDSIRKKNGEIAFFDPAKIAALRVVV”, the “soluble fraction (log2)” value rises from -3.01 to 0.0899.

First: HMPNQIKQIAVNTASVSDIATIPGISFDFAKEIWEFRILRQKIGSLSELQKIEGMTASKYALIELYLHI
Second: HMKKLTAEEIQEAKDILEKIQEIPNFKKIFGDDTIKALENSTKTGVLLPDNIISKIHTLMIRFGIK
The “soluble fraction (log2)” value of the first is lower: -3.37 for the first, 0.237 for the second.

First: HMKFPPELVEFIEGLSLLKPPLNYATVHRRAEKLAIKKGWASPSYSTVRNIIRKLSPALTTLAHEG
Second: HMSEKAQSENEDLIKILALLIHAAKIDENYSEKEKKLIISFAEMSSNKKLDREQINSLVDKAEQYEK
The “soluble fraction (log2)” value of the first is lower: -2.15 for the first, -0.17 for the second.

“HMASVGTHIKRLRAAKRMTQEELAEQLHVTRQAVSAWETGKALPDVEMLERIAAALDADVTEVIYGA” and “HMKTTVEVSPIARPGAVASGSVKFGSGVTAEWMLDQYGRLGLDKPTGKPTEQDIKEFQIELQKAL” are within 0.2 log units of each other in “soluble fraction (log2)” value: 0.0402 for the first, 0.165 for the second.

First: HMDIGTRQRIIAAAMELFRQKGMDGMSMRELAERAGVNKGLLHYYFTTKEAIFREVFVHQVEM
Second: HMAEDDAVQKAVREAVAESADAVADYKAGSERALNFIVGVVMKKTRGKASPGEVHRLVKAEVEK
The “soluble fraction (log2)” value of the first is lower: -0.15 for the first, 0.4 for the second.
